According to the Immune Epitope Database (IEDB):

Key:
HLA-A*03:01 = experiment: IEDB peptide-MHC binding, purified MHC/competitive/fluorescence; filed as Kd, often an IC50 or EC50 that approximates it; ≥ and ≤ were set here for values at or beyond the usual limits of such assays
HLA-A*02:01 [1] = experiment: IEDB peptide-MHC binding, purified MHC/competitive/radioactivity; filed as Kd, often an IC50 or EC50 that approximates it; ≥ and ≤ were set here for values at or beyond the usual limits of such assays
HLA-A*02:03 = experiment: as above
HLA-A*02:17 = experiment: as above
HLA-B*08:01 = experiment: as above
HLA-A*11:01 = experiment: IEDB peptide-MHC binding, purified MHC/competitive/fluorescence; ≥ and ≤ were set here for values at or beyond the usual limits of such assays
HLA-A*02:12 = experiment: IEDB peptide-MHC binding, purified MHC/direct/fluorescence; filed as Kd, often an IC50 or EC50 that approximates it; ≥ and ≤ were set here for values at or beyond the usual limits of such assays
HLA-A*02:19 = experiment: as above
HLA-A*26:01 = experiment: IEDB peptide-MHC binding, purified MHC/competitive/fluorescence; filed as Kd, often an IC50 or EC50 that approximates it; ≥ and ≤ were set here for values at or beyond the usual limits of such assays
HLA-A*69:01 [2] = experiment: as above
HLA-B*15:01 = experiment: as above
HLA-B*15:17 = experiment: as above
HLA-B*18:01 [3] = experiment: as above
HLA-B*27:03 = experiment: as above
HLA-B*39:01 = experiment: as above
HLA-B*46:01 = experiment: as above
HLA-B*51:01 = experiment: as above
HLA-B*57:01 = experiment: as above
HLA-A*02:01 [4] = experiment: as above; settings: source organism: Homo sapiens
HLA-B*18:01 [5] = experiment: IEDB peptide-MHC binding, purified MHC/direct/fluorescence; filed as Kd, often an IC50 or EC50 that approximates it; ≥ and ≤ were set here for values at or beyond the usual limits of such assays; settings: source organism: Influenza A virus (A/camel/Mongolia/1982(H1N1))
HLA-B*40:01 = experiment: as above; settings: source organism: Influenza A virus (A/camel/Mongolia/1982(H1N1))
HLA-B*44:02 = experiment: as above; settings: source organism: Influenza A virus (A/camel/Mongolia/1982(H1N1))
HLA-A*02:06 = experiment: IEDB peptide-MHC binding, purified MHC/competitive/radioactivity; filed as Kd, often an IC50 or EC50 that approximates it; ≥ and ≤ were set here for values at or beyond the usual limits of such assays; settings: source organism: Dengue virus 4 Philippines/H241/1956
HLA-A*30:01 = experiment: as above; settings: source organism: Dengue virus 4 Philippines/H241/1956
HLA-A*02:01 [6] = experiment: IEDB peptide-MHC binding, purified MHC/competitive/fluorescence; ≥ and ≤ were set here for values at or beyond the usual limits of such assays; settings: source organism: Vaccinia virus
HLA-A*02:01 [7] = experiment: IEDB peptide-MHC binding, purified MHC/direct/fluorescence; filed as Kd, often an IC50 or EC50 that approximates it; ≥ and ≤ were set here for values at or beyond the usual limits of such assays; settings: source organism: Amur virus
HLA-A*02:11 = experiment: as above; settings: source organism: Sapporo rat virus
HLA-A*69:01 [8] = experiment: as above; settings: source organism: Amur virus
[9] = source organism: Dengue virus 4 Dominica/814669/1981
[10] = source organism: Dengue virus 3 China/80-2/1980
[11] = source organism: Dengue virus 1 Singapore/S275/1990
[12] = source organism: Dengue virus 1 Brazil/97-11/1997
[13] = source organism: Orthohantavirus negraense
[14] = source organism: Neembucu hantavirus
[15] = source organism: Dengue virus 2 Jamaica/1409/1983
[16] = source organism: Dengue virus 4 Philippines/H241/1956
[17] = source organism: Sapporo rat virus

Q: RLCRFRKSK was tested. Which Kd (HLA-A*03:01; source organism: Yersinia pestis Nepal516) did it give?
A: 121 nM

Q: Which results are given for TLATGPILTL?
A: Kd (HLA-A*02:01 [1]; [9]): 65.4 nM; Kd (HLA-A*02:03; [9]): 12.1 nM; Kd (HLA-A*02:17; [9]): 687 nM

Q: How did the Kd (HLA-A*02:01 [1]; [10]) turn out when MMMLPATLA was run?
A: 27.6 nM

Q: And the Kd (HLA-A*02:03; [10])?
A: 28.6 nM

Q: What about the Kd (HLA-A*02:17; [10]) of the same sequence?
A: 106 nM

Q: What does the source list for LLMLLPTAL?
A: Kd (HLA-A*02:01 [1]; [11]): 7.54 nM; Kd (HLA-A*02:03; [12]): 31 nM; Kd (HLA-A*02:17; [11]): 11.6 nM; Kd (HLA-B*08:01; [12]): 6.42 nM

Q: For TLQVSDVDK, which IC50 (HLA-A*11:01; source organism: Zaire ebolavirus) is on record?
A: 41900 nM

Q: Which results are given for ILYMLSWGK?
A: Kd (HLA-A*02:12; [13]): ≥ 20000 nM; Kd (HLA-A*02:19; [13]): ≥ 20000 nM; Kd (HLA-A*03:01; [14]): 155 nM; Kd (HLA-A*26:01; [14]): ≥ 20000 nM; Kd (HLA-A*69:01 [2]; [14]): ≥ 20000 nM; Kd (HLA-B*15:01; [14]): ≥ 20000 nM; Kd (HLA-B*15:17; [14]): ≥ 20000 nM; Kd (HLA-B*18:01 [3]; [14]): ≥ 20000 nM; Kd (HLA-B*27:03; [14]): ≥ 20000 nM; Kd (HLA-B*39:01; [14]): ≥ 20000 nM; Kd (HLA-B*46:01; [14]): ≥ 20000 nM; Kd (HLA-B*51:01; [14]): ≥ 20000 nM; Kd (HLA-B*57:01; [14]): ≥ 20000 nM

Q: Which results are given for VLVGVVTLYL?
A: Kd (HLA-A*02:01 [1]; [15]): 62 nM; Kd (HLA-A*02:17; [15]): 1570 nM

Q: For YSDNEMLTH, which Kd (HLA-A*02:01 [4]) is on record?
A: ≥ 20000 nM

Q: And the Kd (HLA-A*26:01; source organism: Homo sapiens)?
A: ≥ 20000 nM

Q: And the Kd (HLA-A*69:01 [2]; source organism: Homo sapiens)?
A: ≥ 20000 nM

Q: And the Kd (HLA-B*15:01; source organism: Homo sapiens)?
A: ≥ 20000 nM

Q: And the Kd (HLA-B*15:17; source organism: Homo sapiens)?
A: ≥ 20000 nM

Q: And the Kd (HLA-B*18:01 [3]; source organism: Homo sapiens)?
A: ≥ 20000 nM

Q: What about the Kd (HLA-B*27:03; source organism: Homo sapiens) of the same sequence?
A: ≥ 20000 nM

Q: And the Kd (HLA-B*39:01; source organism: Homo sapiens)?
A: ≥ 20000 nM

Q: What about the Kd (HLA-B*46:01; source organism: Homo sapiens) of the same sequence?
A: ≥ 20000 nM

Q: What about the Kd (HLA-B*51:01; source organism: Homo sapiens) of the same sequence?
A: ≥ 20000 nM

Q: What about the Kd (HLA-B*57:01; source organism: Homo sapiens) of the same sequence?
A: ≥ 20000 nM

Q: For MEYDAVATT, which Kd (HLA-B*18:01 [5]) is on record?
A: ≤ 1 nM

Q: What about the Kd (HLA-B*40:01) of the same sequence?
A: 706 nM

Q: And the Kd (HLA-B*44:02)?
A: ≥ 20000 nM

Q: With VILAGPIPV as the sequence, how does the Kd (HLA-A*02:01 [1]; [16]) read?
A: 6.74 nM

Q: And the Kd (HLA-A*02:06)?
A: 132 nM

Q: And the Kd (HLA-A*02:17; [16])?
A: 995 nM

Q: KMKKKTWLV was tested. Which Kd (HLA-A*02:01 [1]; [16]) did it give?
A: 66.6 nM

Q: What about the Kd (HLA-A*02:03; [16]) of the same sequence?
A: 31 nM

Q: What about the Kd (HLA-A*02:17; [16]) of the same sequence?
A: 65 nM

Q: And the Kd (HLA-A*30:01)?
A: 17.2 nM

Q: What about the Kd (HLA-B*08:01; [16]) of the same sequence?
A: 93.5 nM

Q: For GVVVSTNRL, which IC50 (HLA-A*02:01 [6]) is on record?
A: 9530 nM

Q: What about the IC50 (HLA-A*11:01; source organism: Vaccinia virus) of the same sequence?
A: ≥ 80000 nM

Q: How did the Kd (HLA-A*02:01 [7]) turn out when SLTECPTFL was run?
A: ≤ 1 nM

Q: And the Kd (HLA-A*02:11)?
A: ≤ 1 nM

Q: And the Kd (HLA-A*02:12; [17])?
A: 5 nM

Q: And the Kd (HLA-A*02:19; [17])?
A: 41 nM

Q: What about the Kd (HLA-A*69:01 [8]) of the same sequence?
A: ≥ 20000 nM
